Data published in patent publication US20050175995A1 (UNIVERSITY OF UTAH RESEARCH FOUNDATION, published 2005).

Target: T1, wild-type (WT) Kir2.1 subunit (human, UniProt P63252 1-427)
T1 sequence: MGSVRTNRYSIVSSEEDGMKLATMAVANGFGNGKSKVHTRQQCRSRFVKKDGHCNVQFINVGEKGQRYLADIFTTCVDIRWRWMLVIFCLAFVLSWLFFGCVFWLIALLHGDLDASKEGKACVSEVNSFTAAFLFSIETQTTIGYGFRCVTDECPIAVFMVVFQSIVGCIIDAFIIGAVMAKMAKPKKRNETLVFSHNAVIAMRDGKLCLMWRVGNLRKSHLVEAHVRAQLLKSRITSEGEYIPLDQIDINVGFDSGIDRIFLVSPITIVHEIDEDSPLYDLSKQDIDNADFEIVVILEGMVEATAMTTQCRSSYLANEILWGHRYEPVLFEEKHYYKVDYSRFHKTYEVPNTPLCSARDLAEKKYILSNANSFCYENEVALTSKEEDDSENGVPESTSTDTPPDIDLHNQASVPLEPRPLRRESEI
Test: cell-based or functional assay

B1: D71V Kir2.1 mutant subunit (other)
chain: MGSVRTNRYSIVSSEEDGMKLATMAVANGFGNGKSKVHTRQQCRSRFVKKDGHCNVQFINVGEKGQRYLAVIFTTCVDIRWRWMLVIFCLAFVLSWLFFGCVFWLIALLHGDLDASKEGKACVSEVNSFTAAFLFSIETQTTIGYGFRCVTDECPIAVFMVVFQSIVGCIIDAFIIGAVMAKMAKPKKRNETLVFSHNAVIAMRDGKLCLMWRVGNLRKSHLVEAHVRAQLLKSRITSEGEYIPLDQIDINVGFDSGIDRIFLVSPITIVHEIDEDSPLYDLSKQDIDNADFEIVVILEGMVEATAMTTQCRSSYLANEILWGHRYEPVLFEEKHYYKVDYSRFHKTYEVPNTPLCSARDLAEKKYILSNANSFCYENEVALTSKEEDDSENGVPESTSTDTPPDIDLHNQASVPLEPRPLRRESEI
Reduction in current on co-expression of WT and D71V subunits, relative to WT current: ~0.938 fraction of WT current
